Assay results: PMC10632514 (Nature Communications, 2023)

T1: MPER peptide (wild type, for epitope mapping) (HIV-1 HXB2)
T1 construct: also called wild-type MPER (WT); source: synthetic peptide
T1 chain: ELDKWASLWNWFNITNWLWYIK

B1: rmAb 235 IgG1 (antibody, V domains shown)
VH: QVQLQQSGTDLVRPGTSVKVSCKASGYAFTTYFIEWVKQRPGQGLEWIGVINPGSGIPNYNEMFKGKATLTADKSSSTAYLHLSSLTSDDSAVYFCARAPYYYGSSYYYFDVWGAGTTVTVSS
VL: DIVMSQSPSSLAVSVGEKVTMSCKSSQSLLYSSNQKNYLAWYQQKPGQSPKLLIYWASTRDSGVPDRFTGSGSGTDFTLTISSVKAEDLAVYCCQQYYNYPFTFGAGTKLEIK
B2: rmAb 460 IgG1 (antibody, V domains shown)
VH: EVQLQQSGAELVKPGASVKLSCTASGFNIKDTYMHWVKQRPEQGLEWIGRIDPANGNTKYDPKFQGKATITADTSSNTAYLQLSSLTSEDTAVYFCTRSRGYFGNYYFDYWGQGTTLTVSS
VL: QIVLTQSPAVMSASPGERVTMTCSASSSVSYMYWYQQKPRSSPKPWIYLTSNLASGVPARFSGSGSGTSYSLTISSMEAEDAATYYCQQWSSIPLTFGAGTKLELK

Target: T1, MPER peptide (wild type, for epitope …)
Assay: SPR
Conditions: both partners purified

Binder | binding result
B1 | binds
B2 | binds
